Measurements: patent publication US20160215040A1 (Regeneron, published 2016)

Tests used:
[1] = molecular target: T1, Ebola virus GP with a C-terminal polyhistidine tag (Sino Biologicals, Catalog #40442-V08B1) (Ebola virus, UniProt P87666 33-650); experiment: SPR 37C, mAb captured
T1 construct: also called EbolaGP.his; Ebola virus GP.his

[2] = molecular target: T1, Ebola virus GP with a C-terminal …; experiment: SPR 37C, mAb captured, pH chase
[3] = molecular target: Ebola virus GP, Zaire 2014 strain, on VLPs (pseudoparticles) (Ebola virus, Zaire.2014 strain); experiment: cell-based or functional assay
[4] = molecular target: T1, Ebola virus GP with a C-terminal …; experiment: SPR 25C, mAb captured
[5] = molecular target: T2, Ebola virus GP, Sudan strain, on VLPs (Ebola virus, Sudan strain, UniProt Q7T9D9 33-676); experiment: MSD, VLPs coated
T2 construct: also called Sudan NC_006432
T2 sequence: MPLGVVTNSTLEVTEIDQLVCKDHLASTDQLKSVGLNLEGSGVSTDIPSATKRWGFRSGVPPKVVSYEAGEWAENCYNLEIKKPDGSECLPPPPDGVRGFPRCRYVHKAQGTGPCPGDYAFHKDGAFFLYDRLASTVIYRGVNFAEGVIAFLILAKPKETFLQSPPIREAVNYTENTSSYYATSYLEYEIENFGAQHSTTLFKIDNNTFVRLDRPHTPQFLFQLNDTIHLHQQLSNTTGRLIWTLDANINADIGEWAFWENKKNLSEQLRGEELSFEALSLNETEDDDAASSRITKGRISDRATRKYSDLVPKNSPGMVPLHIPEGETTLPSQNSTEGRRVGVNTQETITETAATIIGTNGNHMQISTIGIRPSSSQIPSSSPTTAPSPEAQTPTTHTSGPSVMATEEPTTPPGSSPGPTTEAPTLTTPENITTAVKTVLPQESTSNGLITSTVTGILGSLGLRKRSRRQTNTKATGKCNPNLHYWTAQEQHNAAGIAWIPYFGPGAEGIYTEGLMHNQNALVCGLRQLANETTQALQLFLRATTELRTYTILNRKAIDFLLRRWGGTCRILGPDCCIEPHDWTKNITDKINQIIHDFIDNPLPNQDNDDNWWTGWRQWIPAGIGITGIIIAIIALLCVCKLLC

[6] = molecular target: T3, Ebola virus GP, Cote d'Ivoire strain, on VLPs (Ebola virus, Cote d'Ivoire strain, UniProt Q66810 33-676); experiment: MSD, VLPs coated
T3 construct: also called Cote d'Ivoire FJ217162; Ivory Coast
T3 sequence: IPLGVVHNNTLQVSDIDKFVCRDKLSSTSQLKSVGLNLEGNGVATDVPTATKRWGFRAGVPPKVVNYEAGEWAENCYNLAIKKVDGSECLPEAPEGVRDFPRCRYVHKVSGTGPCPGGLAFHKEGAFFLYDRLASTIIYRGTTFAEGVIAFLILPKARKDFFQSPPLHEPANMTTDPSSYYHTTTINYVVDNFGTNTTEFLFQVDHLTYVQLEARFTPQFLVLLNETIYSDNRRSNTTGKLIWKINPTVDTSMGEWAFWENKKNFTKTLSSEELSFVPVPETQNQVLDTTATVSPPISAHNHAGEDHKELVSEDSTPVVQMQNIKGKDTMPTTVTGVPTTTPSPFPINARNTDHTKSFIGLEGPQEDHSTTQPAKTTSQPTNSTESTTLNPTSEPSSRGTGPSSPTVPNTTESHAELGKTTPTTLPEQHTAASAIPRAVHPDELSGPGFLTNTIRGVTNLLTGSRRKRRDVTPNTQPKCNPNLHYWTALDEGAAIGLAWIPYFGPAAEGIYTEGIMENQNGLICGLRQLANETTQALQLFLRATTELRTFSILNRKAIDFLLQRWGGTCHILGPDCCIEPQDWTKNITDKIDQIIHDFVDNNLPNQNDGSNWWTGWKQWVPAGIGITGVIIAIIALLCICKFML

[7] = molecular target: T4, hCNTFR.mmh (ciliary neurotrophic factor receptor.mmh) (human (printed as hCNTFR), UniProt P26992 23-342); experiment: BLI, mAb captured, 25C
T4 construct: also called negative control protein; not shown: mmh (myc-myc-hexahistidine) tag
T4 sequence: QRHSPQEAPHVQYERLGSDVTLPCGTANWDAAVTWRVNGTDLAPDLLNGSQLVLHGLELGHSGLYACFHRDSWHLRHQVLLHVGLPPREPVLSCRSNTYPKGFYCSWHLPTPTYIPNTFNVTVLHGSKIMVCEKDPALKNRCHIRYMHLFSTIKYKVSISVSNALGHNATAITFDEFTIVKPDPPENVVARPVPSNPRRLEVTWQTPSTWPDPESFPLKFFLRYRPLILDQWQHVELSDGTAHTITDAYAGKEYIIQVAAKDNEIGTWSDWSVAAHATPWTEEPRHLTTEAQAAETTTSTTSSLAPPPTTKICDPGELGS

B1: H2aM17358N (antibody, V domains shown)
VH: EVQLVESGGGLVQPGGSLRLSCAASGFTFSTYEMNWVRQAPGKGLEWVSYSSSSGRTIYYADSVKGRFTISRDNAKNSLFLQMNSLRAEDTAVYYCARPSSIETLLRNQYHYGVDVWGQGTTVTVSS
VL: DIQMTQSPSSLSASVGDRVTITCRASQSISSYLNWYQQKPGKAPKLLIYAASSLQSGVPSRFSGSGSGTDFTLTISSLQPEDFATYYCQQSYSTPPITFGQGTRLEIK
notes: also called HCAF12C05-14
[1]
  Kd: 52.8 nM
  koff: 0.000567 s⁻¹
  kon: 10700 M⁻¹ s⁻¹
  t½: 20.4 min
[2]
  t½ ratio pH 7.4/pH 5.0: 0.4
  t½ ratio pH 7.4/pH 6.0: 0.7
[3]
  Zaire 2014 VLP neutralization IC50: 4.68 nM
[4]
  Kd: 623 nM
  koff: 0.000201 s⁻¹
  kon: 322 M⁻¹ s⁻¹
  t½: 57.5 min

B2: H2aM17360N (antibody, V domains shown)
VH: EVQLVESGGGLVQPGGSLRLSCAASGFTFSSYEMNWVRQAPGKGLEWVSYISSSGSTKYYADSVKGRFTISRDNAKNSLYLQMNSLRAEDTAVYYCARPSSIPALLRNQYHYGMDVWGQGTTVTVSS
VL: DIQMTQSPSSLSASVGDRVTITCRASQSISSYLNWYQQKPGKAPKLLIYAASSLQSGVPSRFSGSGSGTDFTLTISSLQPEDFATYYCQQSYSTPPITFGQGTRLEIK
notes: also called HCAF12G09-07
[1]
  Kd: 13.9 nM
  koff: 0.000337 s⁻¹
  kon: 24300 M⁻¹ s⁻¹
  t½: 34.3 min
[2]
  t½ ratio pH 7.4/pH 5.0: 0.5
  t½ ratio pH 7.4/pH 6.0: 0.2
[3]
  Zaire 2014 VLP neutralization IC50: 3.75 nM
[4]
  Kd: 0.463 nM
  koff: 1.06e-05 s⁻¹
  kon: 23000 M⁻¹ s⁻¹
  t½: 1090 min

B3: H1H17196P (antibody, V domains shown)
VH: EVQLVESGGGLVQPGGSLRLSCAASGFTFRSYDMHWVRQGSGKGLEWVSAIGTAGDTYYLGSVKGRFTISRENAKNSLYLQMNSLRAGDTAVYYCARAWFGDVFLDYWGQGTLVTVSS
VL: EIVMTQSPATLSVSPGERATLSCRASQSVSSNLAWYQQKPGQAPRLLIYGASTRATGIPARFSGSGSGTEFTLTISSLQSEDFAGYYCQQYNNRLTFGGGTKVEIK
[1]
  Kd: 0.317 nM
  koff: ≤ 1e-05 s⁻¹
  kon: 31600 M⁻¹ s⁻¹
  t½: ≥ 1160 min
[2]
  t½ ratio pH 7.4/pH 5.0: 1
  t½ ratio pH 7.4/pH 6.0: 1
[5]
  binding result: no binding
[6]
  binding result: no binding
[7]
  binding result: no binding (tested: below 0.10 nm at 300 nM)
[4]
  Kd: ≤ 0.391 nM
  koff: ≤ 1e-05 s⁻¹
  kon: 25600 M⁻¹ s⁻¹
  t½: ≥ 1160 min

B4: H1H17193P (antibody, V domains shown)
VH: QVQLVESGGGVVQPGRSLRLSCAASGFTFSSYGIHWVRQAPGKWLEWVAFIWFDGSNKYYADSVKGRFTISRDDSKNTLYLQMNSLRAEDTAVYYCARDGEIFGVLISSDAFDIWGQGTMVTVSS
VL: DIQMTQSPSSLSASVGDRVTITCRASRGIRNDLGWFQQKPGKAPKRLIYVASNLQSGVPSRFSGSGSGTEFTLTISSLQPEDFATYYCLQHNSYPITFGQGTRLEIK
[1]
  Kd: 31.8 nM
  koff: 0.000503 s⁻¹
  kon: 15800 M⁻¹ s⁻¹
  t½: 22.9 min
[2]
  t½ ratio pH 7.4/pH 5.0: 0.8
  t½ ratio pH 7.4/pH 6.0: 1.1
[5]
  binding result: no binding
[6]
  binding result: no binding
[7]
  binding result: no binding (tested: below 0.10 nm at 300 nM)
[4]
  Kd: 23.6 nM
  koff: 0.000108 s⁻¹
  kon: 4580 M⁻¹ s⁻¹
  t½: 107 min
